To fix the notation:
B1: Bovine (Neb): bovine EP protease available from NEB (protein)
chain: IVGGSDSREGAWPWVVALYFDDQQVCGASLVSRDWLVSAAHCVYGRNMEPSKWKAVLGLHMASNLTSPQIETRLIDQIVINPHYNKRRKNNDIAMMHLEMKVNYTDYIQPICLPEENQVFPPGRICSIAGWGALIYQGSTADVLQEADVPLLSNEKCQQQMPEYNITENMVCAGYEAGGVDSCQGDSGGPLMCQENNRWLLAGVTSFGYQCALPNRPGVYARVPRFTEWIQSFLH
B2: Bovine (Nvg): bovine EP protease available from Novagen (protein)
chain: B1 chain
B3: K63R: Medaka EP-1 protease mutant, substitution K63R (protein)
chain: CGQRQVYNSKENNGVPRVVGGVNAEKGAWPWMVSLHWRGRHGCGASLIGRDWLLTAAHCVYGRNTHLQYWSAVLGLHAQSSMNSQEVQIRQVDRIIINKNYNRRTKEADIAMMHLQQPVNFTEWVLPVCLASEDQHFPAGRRCFIAGWGRDAEGGSLPDILQEAEVPLVDQDECQRLLPEYTFTSSMLCAGYPEGGVDSCQGDSGGPLMCLEDARWTLIGVTSFGVGCGRPERPGAYARVSAFTSWIAETRRSSFSDLD
B4: P193E: Medaka EP-1 protease mutant, substitution P193E (protein)
chain: B3 chain with R63K, P193E
B5: T105E: Medaka EP-1 protease mutant, substitution T105E (protein)
chain: B3 chain with R63K, T105E
B6: Porcine: active recombinant enzyme of the porcine EP serine protease domain (Ile800 to His1034) (protein)
chain: IVGGNDSREGAWPWVVALYYNGQLLCGASLVSRDWLVSAAHCVYGRNLEPSKWKAILGLHMTSNLTSPQIVTRLIDEIVINPHYNRRRKDSDIAMMHLEFKVNYTDYIQPICLPEENQVFPPGRICSIAGWGKVIYQGSPADILQEADVPLLSNEKCQQQMPEYNITENMMCAGYEEGGIDSCQGDSGGPLMCLENNRWLLAGVTSFGYQCALPNRPGVYARVPKFTEWIQSFLH

Data on 6 molecules can be found in US8013137B2, “Modified enteropeptidase protein” (National University Corporation Hokkaido University, priority 2006, dated 2011).

Residue numbers refer to the chain shown, from its start. Names and notes keep the numbering of the source.

One may read the Km as the concentration of substrate that gives half-maximal velocity. Broadly, the kcat is the number of substrate molecules converted per active site and unit of time at saturation.

For one series, the system named is GD4K-βNA. The experiment in a line: EP activity and kinetic study with specific substrate GD4K-βNA. The series is classed as biochemical. The note with it: substrate GD4K-βna. The method, then: (A) Active recombinant EP proteases were assayed using a GD4K-βNA (SEQ ID NO: 6) substrate as a substrate. Bovine (Nvg), bovine EP protease available from Novagen; Bovine (Neb), bovine EP protease available from NEB. (B) Active recombinant EP proteases were assayed using various synthetic peptide substrates. (C) Active EP proteases were analyzed by gelatin zymography. (D) Fibronectin (4 μg) was incubated with active EPs (100 ng) at 37° C. for 12 h. (E) Laminin ((10 μg) was incubated with active recombinant EPs (100 ng) at 37° C. for 12 h. (F) Two μg of the control protein containing the D4K site (SEQ ID NO: 1) was incubated with active recombinant EPs (100 ng) at 37° C. for 1 h.
(A) The purity of purified recombinant Medaka EP-1 and EP-2 protease was assessed by SDS-PAGE. Lane 1, Medaka EP fusion protein; lane 2, Medaka EP protease treated with immobilized trypsin; lane 3, Medaka EP protease purified using a resource Q column. (B) The enzyme activities of EP proteases were determined at various pHs using GD4K-βNA (SEQ ID NO: 6) as a substrate. (C) Recombinant Medaka trypsinogen was incubated at 37° C. with EPs for 15, 30 and 45 min. After incubation, samples were analyzed by SDS-PAGE and visualized by CBB staining (upper panel). The relative amount of the active form of Medaka trypsin at each time point were calculated based on the results shown in the upper panel (lower panel). The results are presented as the means (±SD) of three separate experiments.
(§1) EP activity was routinely determined using the specific substrate Gly-Asp-Asp-Asp-Asp-Lys-β-naphthylamide (GD4K-βNA) (SEQ ID NO: 6) (Sigma) according to the method of Mikhailova and Rumsh (Mikhailova et al., FEBS Lett., 442:226-230 (1999)). Enzyme activity for various 4-methylcoumaryl-7-amide (MCA)-containing peptide substrates was determined by the method of Barrett (Barrett et al., J., Biochem. J., 187:909-912 (1980)). For kinetic studies, initial velocities, extrapolated from the plot of product versus time, were transformed into double-reciprocal plots (Lineweaver et al., J. Am. Chem. Soc., 56:658-663 (1934)). The maximum velocities (Vmax) and Km and kcat values were obtained from the intercepts of these plots. For all experiments, the results of at least three separate determinations are shown.
Regarding B1, the Km stood at 500 µM and the kcat amounted to 25 s⁻¹.
For the molecule B2, the Km amounted to 800 µM and the kcat was found to be 12.8 s⁻¹.
Taken in the same sequence, the figures for B3 were 200 µM and 3.5 s⁻¹.
Consider B4, for which the Km was 400 µM and the kcat is 4.83 s⁻¹.
For B5 the same measures were 400 µM and 4.33 s⁻¹.
Taken in the same sequence, the figures for B6 were 400 µM and 8.83 s⁻¹.

Another series deals with GD4K-βNA and the three MCA-containing substrates. Nature of the series: Specific activities of wild-type and mutant EP protease using synthetic peptide substrates (FIG. 3A). The series is classed as biochemical.
Details: not given
The method, then: (A) The specific activities of wild-type (EP-1) and mutant EP protease were determined using synthetic peptide substrates. (B) High-molecular-weight (HMW) kininogen (5 μg) was incubated with active EP proteases (100 ng) at 37° C. for 2 h and analyzed by SDS-PAGE. (C) Fibrinogen (10 μg) was incubated with active EP proteases (100 ng) at 37° C. for 12 h and analyzed by SDS-PAGE.
as §1
As for B3, the “enzyme activity for synthetic peptide substrates compared with the wild-type enzyme” value is “reduced enzyme activity for synthetic peptide substrates”.
On the same count and under the same terms, for B4 the value was “reduced enzyme activity for synthetic peptide substrates”.
The same measure, in the same setting: as for B5, the entry is “reduced enzyme activity for synthetic peptide substrates”.

The next series relates to recombinant Medaka trypsinogen. Nature of the series: Activation of recombinant Medaka trypsinogen, SDS-PAGE. The series is classed as biochemical. The following applies: 37° C., 15, 30 and 45 min.
Turning to B3, the “conversion of recombinant Medaka trypsinogen to active trypsin” value is given as “converted to trypsin as fast as the wild type enzyme”.

Another series has as its system recombinant fusion protein of human kallikrein 8 (hK8). The experiment in a line: Cleavage of recombinant fusion protein of human kallikrein 8 (hK8). The series is classed as biochemical. The following applies: 37° C., 2 h, 100 ng EP. The method, then:
(§2) (A) A recombinant fusion protein of Medaka gelatinase A (5 μg) was separately incubated with active EP proteases (100 ng) at 37° C. for 1 h, and analyzed by SDS-PAGE. (B) A recombinant fusion protein of human kallikrein 8 (hK8) (5 μg) was incubated with active EP proteases (100 ng) at 37° C. for 2 h. After incubation, the samples were analyzed by SDS-PAGE (upper panel), or assayed for activity with Pro-Phe-Arg-MCA (middle panel), or Boc-Glu(OBzl)-Ala-Arg-MCA (lower panel). […] The samples were then analyzed by SDS-PAGE/Western blotting using anti-human tPA antibody (upper panel) or anti-His probe antibody (lower panel). The position of sctPA (58- and 61-kDa) detected with the antibodies is shown.
The effect of Medaka EP serine protease on various fusion proteins containing a D4K-cleavage site (SEQ ID NO: 1) was examined. […]
Regarding B6, the “cleavage of hK8 fusion protein” value is “extensively degraded the substrate”.

A further series has as its system Pro-Phe-Arg-MCA. Nature of the series: Activity assay of EP proteases and EP-treated hK8 samples with Pro-Phe-Arg-MCA (FIG. 4B middle). The series is classed as biochemical.
Details: not given
The method, then:
as §2, §1
Next, a 35.5-kDa protein of human kallikrein 8 (hK8) in the same E. coli expression system was synthesized. Digestion with Medaka wild-type and mutant EP proteases generated 31.5-kDa active hK8 by cleaving the D4K sequence (SEQ ID NO: 1) (FIG. 4B, Top). […] The EP protease-treated samples were directly assayed for hK8 activity using Pro-Phe-Arg-MCA, a good synthetic peptide substrate of hK8 (Rajapakse et al., FEBS Lett., 579:6879-6884 (2005)). […] The substrate Boc-Glu(OBzl)-Ala-Arg-MCA, which is slightly cleaved by active hK8, was rapidly hydrolyzed with the samples treated with mammalian, but not Medaka, EP proteases (FIG. 4B, Bottom).
In the case of B1, the “enzyme activity of the EP protease itself with Pro-Phe-Arg-MCA” value was “considerable enzyme activities were detected”.
B2: the “Pro-Phe-Arg-MCA-hydrolyzing activity of hK8 fusion protein samples treated with EP protease” value is “very low activity”.
On to B3, for which the “enzyme activity of the EP protease itself with Pro-Phe-Arg-MCA” value was “none of the Medaka EP proteases (wild-type EP-1, K63R, E173A, or E193A) showed any significant enzyme activity”.
On the same count and under the same terms, as for B4, the entry is “none of the Medaka EP proteases (wild-type EP-1, K63R, E173A, or E193A) showed any significant enzyme activity”; as for B6, “considerable enzyme activities were detected”.
